Results from PMC12058244, “Design and Synthesis of ^68Ga‐Labeled Peptide‐Based Heterodimers for Dual Targeting of NTS1 and GRPR” (Chemmedchem, 2025).
Read-outs that look alike come from different tables or passages of the source.

What was measured:
NTS1 = settings: cited from earlier work
Method: The design of novel heterodimers was based on SAR studies. […] For this reason, the NT analogue JMV 438 ([Lys^8–Lys^9]NT[8–13]) was widely studied and validated as a positive control (NTS1 K i=4.0 nM, Chart 1).[19] Recently, in the attempt to improve the binding affinity towards NTS1, lipophilic residues were incorporated in the NT[8–13] sequence.[20] Among the new analogues, JMV 2007 (Chart 1), in which a trimethylsilylala ...

[1] = Octanol/water partition coefficient (LogD7.4); format: physicochemical
Method: Determination of the Octanol/Water Partition Coefficient (LogD7.4) LogD determination was performed in triplicate and repeated over three radiolabelings. Approximately 3.7 MBq of the ^68Ga‐radiolabeled peptide were added to qsp 500 μL of PBS (Gibco, France, pH=7.4) and 500 μL of octanol (Sigma Aldrich, USA) in microcentrifuge tubes. Tubes were shaken then vortexed and centrifuged at room temperature (3 min, 4000 rpm). 100 μL of each layer were sampled in separate test tubes and measured in a gamma‐counter (Wizard2, PerkinElmer, USA). LogD7.4 value was obtained by calculating the log10 of the ratio between the organic phase activity (cpm) and the aqueous phase activity (cpm). Both activities were decay‐corrected.

Compound: [Lys^8–Lys^9]NT[8–13] [JMV 438]
- Ki (NTS1): 4 nM

Compound: CC[C@H](C)[C@H](NC(=O)[C@H](Cc1ccc(O)cc1)NC(=O)[C@@H]1CCCN1C(=O)[C@H](CCCCN)NC(=O)[C@H](CCCCN)NC(=O)CCNC(=O)CCNC(=O)[C@H](CC(C)C)NC(=O)C[C@H](O)[C@H](CC(C)C)NC(=O)[C@H](Cc1c[nH]cn1)NC(=O)CNC(=O)[C@@H](NC(=O)[C@H](C)NC(=O)[C@H](Cc1c[nH]c2ccccc12)NC(=O)[C@H](CCC(N)=O)NC(=O)[C@@H](Cc1ccccc1)NC(=O)CCNC(=O)CCNC(=O)CN1CCN(CC(=O)O)CCN(CC(=O)O)CCN(CC(=O)O)CC1)C(C)C)C(=O)N[C@@H](C[Si](C)(C)C)C(=O)O [[^68Ga]Ga‐JMV 7253, metal not drawn]
- logD ([1]; shake-flask octanol/PBS (Gibco) pH 7.4, 500 μL each, ~3.7 MBq 68Ga-peptide, room temperature, centrifuged 3 min 4000 rpm, gamma-counter, triplicate repeated over three radiolabelings, mean±SD, read-out: LogD7.4): -2.46 ± 0.07

Compound: CC[C@H](C)[C@H](NC(=O)[C@H](Cc1ccc(O)cc1)NC(=O)[C@@H]1CCCN1C(=O)[C@H](CCCCN)NC(=O)[C@H](CCCCN)NC(=O)CCNC(=O)[C@H](CCC(=O)NCCC(=O)NCCC(=O)N[C@H](Cc1ccccc1)C(=O)N[C@@H](CCC(N)=O)C(=O)N[C@@H](Cc1c[nH]c2ccccc12)C(=O)N[C@@H](C)C(=O)N[C@H](C(=O)NCC(=O)N[C@@H](Cc1c[nH]cn1)C(=O)N[C@@H](CC(C)C)[C@@H](O)CC(=O)N[C@@H](CC(C)C)C(N)=O)C(C)C)NC(=O)CCNC(=O)CN1CCN(CC(=O)O)CCN(CC(=O)O)CCN(CC(=O)O)CC1)C(=O)N[C@@H](CC(C)C)C(=O)O [[^68Ga]Ga‐JMV 7266, metal not drawn]
- logD ([1]; pH 7.4): -2.62 ± 0.13

Compound: [Lys^8‐Lys^9‐TMSAla^13]NT[8–13] [JMV 2007, NT[8-13] analogue with TMSAla at position 13]
- IC50 (NTS1): 0.02 nM

Compound: CC[C@H](C)[C@H](NC(=O)[C@H](Cc1ccc(O)cc1)NC(=O)[C@@H]1CCCN1C(=O)[C@H](CCCCN)NC(=O)[C@H](CCCCN)NC(=O)CCNC(=O)CCNC(=O)[C@H](CC(C)C)NC(=O)C[C@H](O)[C@H](CC(C)C)NC(=O)[C@H](Cc1c[nH]cn1)NC(=O)CNC(=O)[C@@H](NC(=O)[C@H](C)NC(=O)[C@H](Cc1c[nH]c2ccccc12)NC(=O)[C@H](CCC(N)=O)NC(=O)[C@@H](Cc1ccccc1)NC(=O)CCNC(=O)CCNC(=O)CN1CCN(CC(=O)O)CCN(CC(=O)O)CCN(CC(=O)O)CC1)C(C)C)C(=O)N[C@@H](CC(C)C)C(=O)O [[^68Ga]Ga‐JMV 7110, metal not drawn]
- logD ([1]; pH 7.4): -2.74 ± 0.21
